From the supplement of paper PMC10201428
± gives the standard deviation of the averaged measurements.

B1: library; a variant is named by its letters at N, in order (parent)
chain: AATGTTGTTGATGCAACCATAAAGTGATATTTAATAATTATTTATAATCAGCAACTTAACCACAAAACAACCATATATTGATATNTCACAAAACAACCATAANTTGATATTTTTGTGAATCGAGTATTTCAGCAAAACTACTGCAGTAAGAA

Key:
[1] = variants of: B1; test: relative integration efficiency (T-LR orientation) vs wild-type transposon end (log2 (normalized fold change)); transposon end mutated: left end; higher = more efficient transposition; details: with VchCAST RNA-guided transposition machinery (E. coli BL21(DE3) host, lacZ target)
Method: (§1)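 Pooled, barcoded VchCAST (Tn6677) mini-transposon donor libraries; each variable transposon-end sequence sits in a fixed pDonor mini-transposon context (10-bp barcode and cargo not included). Left- or right-end libraries were co-transformed with pEffector (TniQ-Cascade, TnsABC, lacZ crRNA, T7, 0.1 mM IPTG) into E. coli BL21(DE3) and grown 18 h at 37 C. T-LR and T-RL junction amplicons were sequenced; output/input barcode fold change was normalised to the mean of four wild-type barcodes and log2-transformed. Two biological replicates; zero-count/undetected variants carry floor values (-10 / -15), censored here. Barcode uncoupling by PCR recombination adds noise.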

[2] = variants of: B1; test: relative integration efficiency (T-RL orientation) vs wild-type transposon end (log2 (normalized fold change)); transposon end mutated: left end; higher = more efficient transposition; details: with VchCAST RNA-guided transposition machinery (E. coli BL21(DE3) host, lacZ target)
Method: as §1

Variant: TA A16C G24T T32G A33C T76A T78A T84A C87A A96C T110A T113A
- relative integration efficiency (log2) [1]: -0.572 ± 0.61
- relative integration efficiency (log2) [2]: -0.189 ± 0.31

Variant: CG A1C A2G T3C G4C T5G
- relative integration efficiency (log2) [1]: -0.385 ± 0.32
- relative integration efficiency (log2) [2]: -0.219 ± 0.027

Variant: CC A22T A23T G24C T76A A77T T78A A102T T104A
- relative integration efficiency (log2) [1]: -0.143 ± 0.92
- relative integration efficiency (log2) [2]: -0.196 ± 0.36

Variant: TA A22T G24T T31C A33C A70C T76A T86G A96C T112G T113C
- relative integration efficiency (log2) [1]: -0.771 ± 0.36
- relative integration efficiency (log2) [2]: -0.328 ± 0.2

Variant: TA A23G G24T A33T T76A A77G C87T T104G T113A
- relative integration efficiency (log2) [1]: 0.309 ± 0.37
- relative integration efficiency (log2) [2]: -0.339 ± 0.36

Variant: TG A16C G24T T32G A33C A70C T76A T86G
- relative integration efficiency (log2) [1]: -0.468 ± 0.42
- relative integration efficiency (log2) [2]: -0.731 ± 0.36

Variant: CA A22T G24T T31C A33C T104G T113A
- relative integration efficiency (log2) [1]: -0.697 ± 0.046
- relative integration efficiency (log2) [2]: -0.629 ± 0.23

Variant: TA A16C G24T T32G A33C T76A T78G C87A A96C T112G T113C
- relative integration efficiency (log2) [1]: -0.523 ± 0.65
- relative integration efficiency (log2) [2]: -0.344 ± 0.18

Variant: CA G24A T30A T104A T110A T113A
- relative integration efficiency (log2) [1]: -0.0948 ± 0.19
- relative integration efficiency (log2) [2]: -0.387 ± 0.2

Variant: CG A16T A70T A96T
- relative integration efficiency (log2) [1]: -1.37 ± 0.86
- relative integration efficiency (log2) [2]: -0.887 ± 0.43

Variant: TA G24A T30A T76A T78A T84A C87A A96C T112G T113C
- relative integration efficiency (log2) [1]: 0.461 ± 0.4
- relative integration efficiency (log2) [2]: 0.172 ± 0.12

Variant: TA G24A T30A A70C T76A T86G A96C T112G T113C
- relative integration efficiency (log2) [1]: 0.18 ± 0.5
- relative integration efficiency (log2) [2]: 0.313 ± 0.07

Variant: TA A70C T76A T86G A102T T111C T113C
- relative integration efficiency (log2) [1]: -0.561 ± 0.29
- relative integration efficiency (log2) [2]: -0.418 ± 0.19

Variant: TG A16C G24T T32G A33C T76A T78G C87A
- relative integration efficiency (log2) [1]: 0.456 ± 0.7
- relative integration efficiency (log2) [2]: 0.525 ± 0.38

Variant: CG A15C A16C C17A C18A
- relative integration efficiency (log2) [1]: -2.02 ± 1.9
- relative integration efficiency (log2) [2]: -1.89 ± 0.66

Variant: TA T76A T78G C87A A102T T111C T113C
- relative integration efficiency (log2) [1]: -0.0555 ± 0.34
- relative integration efficiency (log2) [2]: -0.0993 ± 0.033

Variant: TA A22T G24T T31C A33C T76A A77G C87T A96C T112G T113C
- relative integration efficiency (log2) [1]: -0.0329 ± 0.84
- relative integration efficiency (log2) [2]: -0.66 ± 0.42

Variant: TA T76A T78G C87A T104A T110A T113A
- relative integration efficiency (log2) [1]: 0.215 ± 0.49
- relative integration efficiency (log2) [2]: -0.291 ± 0.22

Variant: TA A23G G24T A33T T76A T78A T84A C87A A102T T111C T113C
- relative integration efficiency (log2) [1]: -0.26 ± 0.5
- relative integration efficiency (log2) [2]: 0.131 ± 0.23

Variant: TA A70C T76A T84A C87A T104G T113A
- relative integration efficiency (log2) [1]: 0.771 ± 0.098
- relative integration efficiency (log2) [2]: 0.69 ± 0.33

Variant: TA G24A T30A A70C T76A T84A C87A T104A T110A T113A
- relative integration efficiency (log2) [1]: -0.0484 ± 0.45
- relative integration efficiency (log2) [2]: -0.389 ± 0.28

Variant: TA G24A T30A T76A T78G C87A A102T T111C T113C
- relative integration efficiency (log2) [1]: -0.298 ± 0.65
- relative integration efficiency (log2) [2]: 0.243 ± 0.089

Variant: CG A21G
- relative integration efficiency (log2) [1]: -0.166 ± 0.32
- relative integration efficiency (log2) [2]: -0.412 ± 0.49

Variant: CG A21T
- relative integration efficiency (log2) [1]: -0.384 ± 0.81
- relative integration efficiency (log2) [2]: -0.164 ± 0.16

Variant: CG A21C
- relative integration efficiency (log2) [1]: -1.47 ± 0.6
- relative integration efficiency (log2) [2]: -0.867 ± 0.55

Variant: CA A23G G24T A33T A96C T112G T113C
- relative integration efficiency (log2) [1]: -0.242 ± 0.57
- relative integration efficiency (log2) [2]: -0.198 ± 0.26

Variant: TA A70C T76A T84A C87A T104A T110A T113A
- relative integration efficiency (log2) [1]: 0.319 ± 0.13
- relative integration efficiency (log2) [2]: -0.146 ± 0.28

Variant: TA G24A T30A T76A T78G C87A T104G T113A
- relative integration efficiency (log2) [1]: -0.302 ± 0.11
- relative integration efficiency (log2) [2]: -0.161 ± 0.15

Variant: CG A11T T12A
- relative integration efficiency (log2) [1]: -1.18 ± 0.28
- relative integration efficiency (log2) [2]: -0.325 ± 0.19
